The text below walks through data of patent US20210380714A1.

In general, Kd refers to the equilibrium constant for the complex coming apart.

Experiment [1] has as its target recombinant human soluble MSLN (rHuMSLN sol.) (human) (UniProt Q13421). As to the kind of experiment: Biacore; 237 captured on the sensor chip, rHuMSLN sol. in solution.
In experiment [2] the target is native human MSLN expressed on the cell surface (N87 / NCI-N87 tumor cells) (human) (UniProt Q13421). Briefly: KinExA on N87 cells compared with Biacore on rHuMSLN sol. In general terms: A kinetic exclusion assay measures how much of one partner remains free in solution.
Experiment [3] has the same target. As to the kind of experiment: KinExA equilibrium binding to N87 tumor cells expressing native human MSLN.
Experiment [4] concerns the target recombinant human soluble MSLN (rHuMSLN sol.) (human) (UniProt Q13421). Briefly: Biacore, soluble human MSLN. (Surface plasmon resonance follows binding to a sensor surface in real time, without labels.)
Experiment [5] has as its target native human MSLN expressed on the cell surface (N87 / NCI-N87 tumor cells) (human) (UniProt Q13421). As to the kind of experiment: KinExA, native hu MSLN on cells.

Chain of native human MSLN expressed on the cell surface (N87 / NCI-N87 tumor cells) (human) (Q13421 296-606 limits assumed): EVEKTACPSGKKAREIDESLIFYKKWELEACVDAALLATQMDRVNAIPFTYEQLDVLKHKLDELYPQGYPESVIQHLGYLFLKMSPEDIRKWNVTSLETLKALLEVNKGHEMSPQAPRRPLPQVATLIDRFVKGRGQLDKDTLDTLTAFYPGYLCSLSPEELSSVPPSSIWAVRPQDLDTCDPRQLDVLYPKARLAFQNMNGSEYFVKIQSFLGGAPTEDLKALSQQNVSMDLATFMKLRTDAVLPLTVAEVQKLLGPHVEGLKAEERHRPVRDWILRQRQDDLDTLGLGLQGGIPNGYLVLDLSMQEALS
Chain of recombinant human soluble MSLN (rHuMSLN sol.) (human) (Q13421 296-606 limits assumed): as above

B1: Ab237 (Hu-anti-huMesothelin-2.37-IgG1) (antibody, V domains shown)
VH: QVQLQESGPGLVKPSQTLSLTCTVSGGSINNNNYYWTWIRQHPGKGLEWIGYIYYSGSTFYNPSLKSRVTISVDTSKTQFSLKLSSVTAADTAVYYCAREDTMTGLDVWGQGTTVTVSS
VL: DIQMTQSPSSLSASVGDRVTITCRASQSINNYLNWYQQKPGKAPTLLIYAASSLQSGVPSRFSGSRSGTDFTLTISSLQPEDFAAYFCQQTYSNPTFGQGTKVEVK
As for B1, the results for the Kd in experiment [1] and in experiment [3] were 0.097 nM and 0.0035 nM, respectively. The fold better binding than to soluble MSLN in experiment [2] stood at 30 fold.

B2: 158.3 (antibody, V domains shown)
VH: QVQLQESGPGLVKPSETLSLTCTVSGGSIISHYWSWIRQPPGKGLEWIGYIYYSGSTNYNPSLKSRVTISVDTSKNQFSLKLTSVTAADTAVYYCARDGWSAFDYWGQGTLVTVSS
VL: DIQMTQSPSSLSASVGDRVTITCRASQGIRNALGWYQQKPGKAPKRLIYAASSLQSGVPSRFSGSGSGTEFTLTISSLQPEDFATYYCLQHNSYPRTFGQGTKVEIRR
Regarding B2, the Kd in experiment [4] was 2.4 nM; in experiment [5] it was 0.0122 nM.

B3: 151 (antibody, V domains shown)
VH: QVQLQESGPGLVKPSETLSLTCTVSGGSISSYYWSWIRQPPGKGLEWIGYIYYSGSTNYNPSLKSRVTISVDTSKNQFSLKLSSVTAADTAVYYCARVDYKAFDIWGQGTMVTVSS
VL: DIQMTQSPSSLSASVGDRVTITCRASQGIRNDLHWYQQKPGKAPKRLIYAASSLQSGVPSRFSGSGSGTEFTLTISSLQPEDFATYYCLQHYSYPWTFGQGTKVEIK
As for B3, the Kd in experiment [4] came to 17.4 nM; in experiment [5] it was 0.03 nM.

B4: 1.33.1 (antibody, V domains shown)
VH: QVQLQESGPGLVKPSQTLSLTCTVSGGSISGDGHFWSWIRQHPGKGLEWIGYIYYSGSTYYNPSLKSRVTISVDTSKNQFSLKLSSVTAADTAVYYCARLRGGYKFDYWGQGTLVTVSS
VL: DIVMTQTPLSLSVAPGQPASISCQSSLSLQHSNGKTYLYWYLQKPGQPPQLLIYEVSNRFSGVPDRFSGSGSGTDFTLKISRVEAEDVGIYYCMQSKQLPCSFGQGTKLEIK
Regarding B4, the Kd in experiment [4] came out at 0.965 nM.
